Reference: article PMC2222952, “Structural and Biochemical Bases for the Inhibition of Autophagy and Apoptosis by Viral BCL-2 of Murine γ-Herpesvirus 68” (PLoS Pathogens, 2008)
Where two headings read alike, the source gives them in different places. Ends that are not written are not given here.

B4: M11 (residues 1–137), purified alone (domain or fragment)
chain: MSHKKSGTYWATLITAFLKTVSKVEELDCVDSAVLVDVSKIITLTQEFRRHYDSVYRADYGPALKNWKRDLSKLFTSLFVDVINSGRIVGFFDVGRYVCEEVLCPGSWTEDHELLNDCMTHFFIENNLMNHFPLEDI
notes: source: E. coli BL21(DE3), purified (Ni-NTA, Hitrap Q)

Experiments:
[1] = molecular target: T1, M11, viral BCL-2 of murine γ-herpesvirus 68 (residues 1–137) (Murid herpesvirus 4, UniProt P89884); format: binding
T1 construct: Each of the DNA fragments coding for M11 (residues 1–137); His6 tag; This is inferred: pPROEX HTa encodes an N-terminal His tag with a TEV site, and purification was on Ni-NTA; (N); made in house; host or cells: E. coli BL21(DE3)
T1 sequence (P89884 whole entry, looked up): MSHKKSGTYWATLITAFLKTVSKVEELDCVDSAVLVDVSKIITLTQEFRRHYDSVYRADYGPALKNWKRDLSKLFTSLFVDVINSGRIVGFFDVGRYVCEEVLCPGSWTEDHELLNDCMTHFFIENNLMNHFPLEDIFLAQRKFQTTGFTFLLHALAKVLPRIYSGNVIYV
Source text: (§1) “HT”, “CCD” and “ECD” denote hydrophobic tail, coiled-coil domain and evolutionarily conserved domain, respectively. […] The surface coloring scheme is as follows: olive for Val, Leu, Ile, Phe, Trp, Met, and Ala; yellow for Cys, Gly, Tyr, and Pro; gray for other amino acids. […] Only the BH3-binding groove region of M11 is shown for clarity. […] The arrows indicate the movements of the Cα atoms of Asp59 and Tyr60 in M11. (C) ITC analysis.
(§2) Figure 5 Analyses of the Interactions between M11 or BCL-2 Proteins and BAX/BAK (A) Cell-based binding assay. 293T cells were transfected with HA-tagged BAK or Flag-tagged BAX together with the indicated GST-tagged prosurvival BCL-2 proteins. Whole cell lysates were used for immunoprecipitation with anti-GST followed by immunoblotting with anti-HA or anti-Flag. […] (B) ITC analyses of the interactions of M11 with the BH3 peptides of BAX or BAK. The ITC analysis was carried out by titrating 0.1 mM of the indicated peptides into 5 μM of M11. The ITC run for the titration of the 26-mer BAK peptide is shown. […] NIH3T3 cells were transfected with HA-tagged M11 and whole cell lysates were used for immunoprecipitation with control rabbit serum or anti-BAK followed by immunoblotting with anti-HA.
(§3) A plasmid containing the DNA segment coding for human BCL-2 (residues 1–50 and 92–207) was also constructed. The resulting protein lacks the internal long loop (residues 51–91) and contains a replacement of residues 35–50 with residues 33–48 of BCL-XL, which was necessary for the solubility of the protein as reported earlier. Each construct was introduced into the E. coli BL21(DE3) strain. The proteins were expressed at 21 °C overnight and purified using a Ni-NTA column and a Hitrap Q anion exchange column.
(§4) All measurements were carried out at 25 °C on a MicroCalorimetry System (MicroCal). Protein samples were dialyzed against the solution containing 20 mM Tris-HCl (pH 7.4) and 100 mM NaCl. The samples were degassed for 20 min and centrifuged to remove any residuals prior to the measurements. Dilution enthalpies were measured in separate experiments (titrant into buffer) and subtracted from the enthalpies of the binding between the protein and the titrant. Data were analyzed using the Origin software (OriginLab Corp.).

[2] = test system: BCL-w ∆C29; settings: Table S1; relative values, not absolute KD; peptides of Chen et al. are the same as or 1 to 2 residues shorter than those of this paper; read-out: binding affinity for BCL-w ∆C29 (relative value, competitive binding assay); cited from earlier work
[3] = test system: BCL-XL ∆C24; settings: Table S1; relative values, not absolute KD; peptides of Chen et al. are the same as or 1 to 2 residues shorter than those of this paper; read-out: binding affinity for BCL-XL ∆C24 (relative value, competitive binding assay); cited from earlier work
[4] = test system: A1 ∆C20; parameters: method as in earlier work; settings: Table S1; relative values, not absolute KD; peptides of Chen et al. are the same as or 1 to 2 residues shorter than those of this paper; read-out: binding affinity for A1 ∆C20 (relative value, competitive binding assay); cited from earlier work
[5] = test system: MCL ∆N151 ∆C23; parameters: method as in earlier work; settings: Table S1; relative values, not absolute KD; peptides of Chen et al. are the same as or 1 to 2 residues shorter than those of this paper; read-out: binding affinity for MCL ∆N151 ∆C23 (relative value, competitive binding assay); cited from earlier work
[6] = test system: BCL-2 ∆C22; parameters: method as in earlier work; settings: Table S1; relative values, not absolute KD; peptides of Chen et al. are the same as or 1 to 2 residues shorter than those of this paper; read-out: binding affinity for BCL-2 ∆C22 (relative value, competitive binding assay); cited from earlier work
[7] = molecular target: T2, M11, viral BCL-2 of murine γ-herpesvirus 68 (residues 1–137) (Murid herpesvirus 4, UniProt P89884); format: binding; settings: ITC, 25 °C, 20 mM Tris-HCl (pH 7.4), 100 mM NaCl; Table S2
T2 construct: Each of the DNA fragments coding for M11 (residues 1–137); His6 tag; This is inferred: pPROEX HTa encodes an N-terminal His tag with a TEV site, and purification was on Ni-NTA; (N); made in house; host or cells: E. coli BL21(DE3)
Source text: as §1, §2, §3, §4

[8] = molecular target: T3, Beclin1(101–267) (mouse, UniProt O88597 101-267); assay: ITC; settings: both partners purified
T3 construct: also called Beclin1 fragment containing residues 101–267; large Beclin1 fragment; source: E. coli BL21(DE3), purified (Ni-NTA, Hitrap Q)

[9] = molecular target: T4, mouse BCL-XL (residues 1–44 and 85–196) (mouse, UniProt Q64373-1 1-196, lacking the internal long loop (residues 45–84)); assay: native gel or EMSA; settings: both partners purified
T4 construct: also called BCL-XL lacking the internal long loop and the C-terminal tail region

[10] = molecular target: B4; assay: ITC; settings: both partners purified
[11] = molecular target: human BCL-2 (residues 1–50 and 92–207); assay: Isothermal titration calorimetry (ITC) of BCL-2 with Beclin1 fragment; format: binding
Experimental: Figure 3 M11 Interacts Much More Tightly with Beclin1 than BCL-2 and BCL-XL (A) ITC analysis. The measurement was carried out by titrating 0.1 mM of M11 or BCL-2 into 5 μM of the indicated Beclin1 fragment. The K D values were deduced from curve fittings of the integrated heat per mol of added ligand. (B) M11–Beclin1 interface is tighter than that of BCL-XL–Beclin1. The structures of M11–Beclin1 fragment (left) and BCL-XL–Beclin1 peptide (right) are compared side by side. In both the structures, the five consensus BH3 residues of the bound α-helices and the side chains of M11 or BCL-XL interacting with those residues are shown as sticks and labeled. Noted are the tighter interactions of the N-terminal region of Beclin1 with the α3 helix of M11 than the corresponding region in the BCL-XL–Beclin1 helix (indicated by dotted circles).
Each of the DNA fragments coding for M11 (residues 1–137), mouse BCL-XL (residues 1–44 and 85–196) or mouse Beclin1 (residues 101–267) was cloned into pPROEX HTa. […]
All measurements were carried out at 25 °C on a MicroCalorimetry System (MicroCal). […] Dilution enthalpies were measured in separate experiments (titrant into buffer) and subtracted from the enthalpies of the binding between the protein and the titrant. Data were analyzed using the Origin software (OriginLab Corp.).

[12] = 25 °C, 20 mM Tris-HCl (pH 7.4), 100 mM NaCl
[13] = ITC, 25 °C, 20 mM Tris-HCl (pH 7.4), 100 mM NaCl, Table S2

T4 sequence (Q64373 other isoform, or with tags, fused parts or gaps with the stated changes): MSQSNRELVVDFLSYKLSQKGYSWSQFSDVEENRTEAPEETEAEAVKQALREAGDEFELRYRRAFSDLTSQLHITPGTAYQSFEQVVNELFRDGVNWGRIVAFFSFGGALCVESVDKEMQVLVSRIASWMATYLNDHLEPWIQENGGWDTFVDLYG

## BAK (16-mer; residues 69-84): synthetic 16-mer peptide, residues 69–84 of BAK, spanning the BH3 domain (LGQVGRQLALIGDDIN)
[1]; [12]
  interaction with M11 in ITC, in words (KD could not be deduced): flat titration curve

## BIK: synthetic 25-mer BH3 peptide, residues 45–69 of BIK (VEGRNQVALRLACIGDEMDLCLRSP)
[2]
  IC50: 12 nM
[3]
  IC50: 43 nM
[1]; [12]
  interaction with M11 in ITC, in words (KD could not be deduced): did not interact or poorly interacted
[4]
  IC50: 58 nM

## Beclin1 fragment composed of residues 101–116: a shorter Beclin1 fragment composed of residues 101–116 (ASDGGTMENLSRRLKV)
[1]; [12]
  interaction with M11 in ITC, in words (KD could not be deduced): no sign of interaction

## EEEWAREIGAQLRRMADDLNAQYERR [PUMA]
[5]
  IC50: 5 nM
[4]
  IC50: 5.7 nM

## HRAEVQIARKLQCIADQFHRLHTQ [BMF]
[5]
  IC50: 1100 nM
[2]
  IC50: 9.8 nM
[3]
  IC50: 9.7 nM
[6]
  IC50: 3 nM
[7]
  -T∆S (M11 + BH3): -2.56 kcal/mol
  ∆G (M11 + BH3): -8.90 kcal/mol
  ∆H (M11 + BH3): -6.34 ± 0.07 kcal/mol
[4]
  IC50: 1800 nM

## RWAAAQVTALRLQALGDELHRRAMRR [Hrk]
[2]
  IC50: 49 nM
[3]
  IC50: 3.7 nM
[6]
  IC50: 320 nM
[4]
  IC50: 46 nM

B1: human BCL-2 (residues 1–50 and 92–207, residues 35–50 replaced with residues 33–48 of BCL-XL) (domain or fragment, UniProt P10415-1 1-34, looked up)
chain: MAHAGRTGYDNREIVMKYIHYKLSQRGYEWDAGDNRTEAPEGTESEMETPVVHLTLRQAGDDFSRRYRRDFAEMSSQLHLTPFTARGRFATVVEELFRDGVNWGRIVAFFEFGGVMCVESVNREMSPLVDNIALWMTEYLNRHLHTWIQDNGGWDAFVELYGPSMR
notes: also called cellular BCL-2; source: E. coli BL21(DE3), purified (Ni-NTA, Hitrap Q)
[8]
  Kd: 1700 nM

B2: BAD BH3 peptide, 27-mer (residues 137–163 of BAD) (peptide, UniProt Q61337 137-163, looked up)
peptide: APPNLWAAQRYGRELRRMSDEFEGSFK
notes: also called BAD peptide; source: synthetic peptide, bought: Peptron (Korea)
[9]
  binding result: binds

B3: BAK BH3 peptide, 26-mer (residues 65–90 of BAK) (peptide, UniProt O08734 65-90, looked up)
peptide: PNSILGQVGRQLALIGDDINRRYDTE
notes: also called BAK peptide; 26-mer BAK peptide; source: synthetic peptide, bought: Peptron (Korea)
[10]
  Kd: 76 nM

## B4
[8]
  Kd: 40 nM

B5: BIM BH3 peptide, 26-mer (residues 139–164 of BIM) (peptide, UniProt O54918-1 139-164, looked up)
peptide: DLRPEIRIAQELRRIGDEFNETYTRR
notes: also called BIM peptide; source: synthetic peptide, bought: Peptron (Korea)
[10]
  binding result: binds
[9]
  binding result: binds

B6: PUMA BH3 peptide, 26-mer (residues 130–155 of PUMA) (peptide, UniProt Q99ML1 130-155, looked up)
peptide: EEEWAREIGAQLRRMADDLNAQYERR
notes: also called PUMA peptide; source: synthetic peptide, bought: Peptron (Korea)
[10]
  binding result: binds

B7: BID BH3 peptide, 25-mer (residues 80–104 of BID) (peptide, UniProt P70444 80-104, looked up)
peptide: EEIIHNIARHLAQIGDEMDHNIQPT
notes: also called BID peptide; source: synthetic peptide, bought: Peptron (Korea)
[10]
  binding result: binds

B8: Beclin1(101–267): mouse Beclin1 fragment containing residues 101–267, expressed as a soluble form in E. coli (protein)
chain: ASDGGTMENLSRRLKVTGDLFDIMSGQTDVDHPLCEECTDTLLDQLDTQLNVTENECQNYKRCLEILEQMNEDDSEQLQRELKELALEEERLIQELEDVEKNRKVVAENLEKVQAEAERLDQEEAQYQREYSEFKRQQLELDDELKSVENQVRYAQIQLDKLKKTNV
[11]; 25 °C, 20 mM Tris-HCl (pH 7.4), 100 mM NaCl, Table S2, read-out: KD (BCL-2 + Beclin1)
  Kd: 1680 ± 452 nM
[11]; read-out: binding affinity between cellular BCL-2 and Beclin1
  Kd: 1700 nM
[1]; ITC, 25 °C, 20 mM Tris-HCl (pH 7.4), 100 mM NaCl, 0.1 mM M11 titrated into 5 μM Beclin1 fragment, KD from curve fitting, listed as Residues 101 - 267, read-out: KD (M11 – Beclin1 fragment)
  Kd: 40.2 ± 9.05 nM
[1]; ITC, 25 °C, 20 mM Tris-HCl (pH 7.4), 100 mM NaCl, 0.1 mM M11 titrated into 5 μM Beclin1 fragment, KD from curve fitting, read-out: KD (M11 – Beclin1 fragment)
  Kd: 40 nM
[1]; [13]
  -T∆S (M11 + Beclin1): 4.23 kcal/mol
  ∆G (M11 + Beclin1): -10.10 kcal/mol
  ∆H (M11 + Beclin1): -14.33 ± 0.23 kcal/mol
[1]; ITC, read-out: dissociation constant (M11 – BH3-like domain of Beclin1)
  Kd: 40 nM

B9: Noxa BH3 peptide, 26-mer (residues 16–41 of Noxa) (peptide, UniProt Q9JM54 16-41, looked up)
peptide: RAELPPEFAAQLRKIGDKVYCTWSAP
notes: also called Noxa peptide; source: synthetic peptide, bought: Peptron (Korea)
[10]
  binding result: binds

B10: BAX BH3 peptide, 26-mer (residues 52–77 of BAX) (peptide, UniProt Q07813-1 52-77, looked up)
peptide: QDASTKKLSECLRRIGDELDSNMELQ
notes: also called BAX peptide; source: synthetic peptide, bought: Peptron (Korea)
[10]
  Kd: 690 nM
